Source: patent publication US20060172940

Target: T1, synthetic full length mucocidin peptide (46-mer)
T1 chain: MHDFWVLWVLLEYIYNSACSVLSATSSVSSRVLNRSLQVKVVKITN

B1: guinea pig liver transglutaminase (protein)
chain: AEDLILERCDLQLEVNGRDHRTADLCRERLVLRRGQPFWLTLHFEGRGYEAGVDTLTFNAVTGPDPSEEAGTMARFSLSSAVEGGTWSASAVDQQDSTVSLLLSTPADAPIGLYRLSLEASTGYQGSSFVLGHFILLYNPRCPADAVYMDSDQERQEYVLTQQGFIYQGSAKFINGIPWNFGQFEDGILDICLMLLDTNPKFLKNAGQDCSRRSRPVYVGRVVSAMVNCNDDQGVLQGRWDNNYSDGVSPMSWIGSVDILRRWKDYGCQRVKYGQCWVFAAVACTVLRCLGIPTRVVTNFNSAHDQNSNLLIEYFRNESGEIEGNKSEMIWNFHCWVESWMTRPDLEPGYEGWQALDPTPQEKSEGTYCCGPVPVRAIKEGHLNVKYDAPFVFAEVNADVVNWIRQKDGSLRKSINHLVVGLKISTKSVGRDEREDITHTYKYPEGSEEEREAFVRANHLNKLATKEEAQEETGVAMRIRVGQNMTMGSDFDIFAYITNGTAESHECQLLLCARIVSYNGVLGPVCSTNDLLNLTLDPFSENSIPLHILYEKYGDYLTESNLIKVRGLLIEPAANSYVLAERDIYLENPEIKIRVLGEPKQNRKLIAEVSLKNPLPVPLLGCIFTVEGAGLTKDQKSVEVPDPVEAGEQAKVRVDLLPTEVGLHKLVVNFECDKLKAVKGYRNVIIGPA
Transglutaminase catalyzed monodansylcadaverine (MDC) incorporation into mucocidin: The time-dependent uptake of MDC into mucocidin (FIG. 4C) was detected only in the presence of Ca^++ but not in its absence
